{
  "source": "IntAct's records for PubMed 22632967",
  "parents": {"B1": {"name": "Ribonucleoside-diphosphate reductase subunit M2 (Homo sapiens), P31350 (parent)", "chain": "MLSLRVPLAPITDPQQLQLSPLKGLSLVDKENTPPALSGTRVLASKTARRIFQEPTEPKTKAAAPGVEDEPLLRENPRRFVIFPIEYHDIWQMYKKAEASFWTAEEVDLSKDIQHWESLKPEERYFISHVLAFFAASDGIVNENLVERFSQEVQITEARCFYGFQIAMENIHSEMYSLLIDTYIKDPKEREFLFNAIETMPCVKKKADWALRWIGDKEATYGERVVAFAAVEGIFFSGSFASIFWLKKRGLMPGLTFSNELISRDEGLHCDFACLMFKHLVHKPSEERVREIIINAVRIEQEFLTEALPVKLIGMNCTLMKQYIEFVADRLMLELGFSKVFRVENPFDFMENISLEGKTNFFEKRVGEYQRMGVMSSPTENSFTLDADF", "partner": "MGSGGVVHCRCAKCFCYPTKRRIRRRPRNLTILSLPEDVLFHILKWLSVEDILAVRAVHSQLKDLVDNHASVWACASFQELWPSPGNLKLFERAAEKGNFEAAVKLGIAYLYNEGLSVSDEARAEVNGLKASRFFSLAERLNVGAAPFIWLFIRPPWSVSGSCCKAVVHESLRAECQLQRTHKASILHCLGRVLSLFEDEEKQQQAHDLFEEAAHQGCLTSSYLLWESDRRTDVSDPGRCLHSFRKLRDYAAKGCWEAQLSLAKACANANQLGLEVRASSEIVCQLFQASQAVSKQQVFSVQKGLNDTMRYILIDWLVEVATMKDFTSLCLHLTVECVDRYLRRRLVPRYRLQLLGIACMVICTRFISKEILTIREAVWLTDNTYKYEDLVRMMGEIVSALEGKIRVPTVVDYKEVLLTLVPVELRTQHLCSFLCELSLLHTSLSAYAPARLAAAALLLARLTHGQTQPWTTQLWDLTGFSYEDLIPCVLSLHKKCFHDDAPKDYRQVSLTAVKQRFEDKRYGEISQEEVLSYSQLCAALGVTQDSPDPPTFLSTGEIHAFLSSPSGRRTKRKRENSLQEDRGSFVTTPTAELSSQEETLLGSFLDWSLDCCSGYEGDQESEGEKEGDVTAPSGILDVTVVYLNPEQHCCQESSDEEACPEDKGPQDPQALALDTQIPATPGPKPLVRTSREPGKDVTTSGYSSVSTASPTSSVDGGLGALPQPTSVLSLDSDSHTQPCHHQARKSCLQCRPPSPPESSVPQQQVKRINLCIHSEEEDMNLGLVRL"}, "B2": {"name": "Cyclin-F (Homo sapiens), P41002 (parent)", "chain": "B1 partner", "partner": "B1 chain"}, "B3": {"name": "Cyclin-F (Homo sapiens), P41002 (parent)", "chain": "B1 partner"}},
  "data": [
    {"variants_of": "B1", "details": "with ccnf_human CCNF", "values": [
      {"variant": "R49A;I51A", "effect of a mutation on the interaction": "disrupting interaction strength"},
      {"variant": "T33A", "effect of a mutation on the interaction": "decreasing interaction strength"}
    ]},
    {"variants_of": "B1", "details": "with ccnf_human CCNF", "remark": "another data set of the same source", "values": [
      {"variant": "T33A", "effect of a mutation on the interaction": "disrupting interaction strength"}
    ]},
    {"variants_of": "B2", "details": "with rir2_human RRM2, P31350", "values": [
      {"variant": "L35A;P36A", "effect of a mutation on the interaction": "increasing interaction strength"}
    ]},
    {"variants_of": "B3", "details": "with cp110_human CCP110, O43303", "values": [
      {"variant": "L35A;P36A", "effect of a mutation on the interaction": "increasing interaction strength"}
    ]}
  ]
}
